Laboratory results taken from US20250368745A1 (published 2025).

T1: human IL-18BP (interleukin-18 binding protein, isoform A) (human, UniProt O95998 31-194)
T1 sequence: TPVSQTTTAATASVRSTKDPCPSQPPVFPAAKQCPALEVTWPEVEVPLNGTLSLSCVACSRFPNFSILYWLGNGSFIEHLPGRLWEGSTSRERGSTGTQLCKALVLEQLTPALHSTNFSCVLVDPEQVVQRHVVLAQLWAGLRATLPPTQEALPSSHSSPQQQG

T2: cynomolgus IL-18BP (cynomolgus monkey)
T2 construct: Generated in-house; also called cyIL-18BP; cyno IL-18BP
T2 chain: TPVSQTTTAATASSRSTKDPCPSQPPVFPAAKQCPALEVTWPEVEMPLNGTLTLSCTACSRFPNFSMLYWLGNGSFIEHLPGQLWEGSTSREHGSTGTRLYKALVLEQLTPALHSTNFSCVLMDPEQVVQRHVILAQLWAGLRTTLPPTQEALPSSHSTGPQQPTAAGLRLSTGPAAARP


Tests used:
[1] = biological target: T1, human IL-18BP (interleukin-18 binding …); test: cell-based or functional assay
[2] = biological target: T1, human IL-18BP (interleukin-18 binding …); test: BLI, affinity column of Table E8
[3] = biological target: T1, human IL-18BP (interleukin-18 binding …); test: BLI (Octet), mAb on AHC biosensor
[4] = biological target: T1, human IL-18BP (interleukin-18 binding …); test: BLI single-concentration screen, apparent KD
cynomolgus IL-18BP = biological target: T2, cynomolgus IL-18BP; test: BLI single-concentration screen, apparent KD

| Binder | EC50 in PBMC Assay 1 (endogenous IL-18BP), IFNγ [1] | EC50 in PBMC Assay 2 (precomplexed IL-18BP), IFNγ [1] | Kd [2] | Kd [3] | Kd [4] | Kd (cynomolgus IL-18BP) |
| --- | --- | --- | --- | --- | --- | --- |
| SA311a (antibody, human IgG1, V domains shown, humanized; human IgG1 (suffix a), kappa) VH: QVQLQESGPGLVKPSQTLSLTCTVSGYSITSDYNAHWIRQPPGKGLEWIGYIHYSGQTMYNPSLKSRVTISRDTSKNQFSLKLSSVTAADTAVYYCARNYGSIYVNYFDYWGQGTLVTVSS VL: EIVLTQSPATLSLSPGERATLSCSASSSVSYMYWYQQKPGQAPRPLIYRTSNLASGIPARFSGSGSGTDFTLTISSLEPEDFAVYYCQQYHSYPTFGGGTKVEIK | 0.6 nM | 1.24 nM | 0.243 nM | 0.243 nM |  |  |
| SA312a (antibody, human IgG1, V domains shown, humanized; human IgG1 (suffix a), kappa) VH: QVQLQESGPGLVKPSQTLSLTCTVSGYSITQDYNAHWIRQPPGKGLEWIGYIHYSGSTMYNPSLKSRVTISRDTSKNQFSLKLSSVTAADTAVYYCARNYGSIYVNYFDYWGQGTLVTVSS VL: EIVLTQSPATLSLSPGERATLSCSASSSVSYMYWYQQKPGQAPRPLIYRTSNLASGIPARFSGSGSGTDFTLTISSLEPEDFAVYYCQQYHSYPTFGGGTKVEIK | 2.1 nM | 0.74 nM | 0.117 nM | 0.117 nM |  |  |
| SA313a (antibody, human IgG1, V domains shown, humanized; human IgG1 (suffix a), kappa) VH: QVQLQESGPGLVKPSQTLSLTCTVSGYSITSDYNAHWIRQPPGKGLEWIGYIHYSGSTMYNPSLKSRVTISRDTSKNQFSLKLSSVTAADTAVYYCARNFGSIYVNYFDYWGQGTLVTVSS VL: EIVLTQSPATLSLSPGERATLSCSASSSVSYMYWYQQKPGQAPRPLIYRTSNLASGIPARFSGSGSGTDFTLTISSLEPEDFAVYYCQQYHSYPTFGGGTKVEIK | 1.2 nM | 0.71 nM | 0.272 nM | 0.272 nM |  |  |
| SA315a (antibody, human IgG1, V domains shown, humanized; human IgG1 (suffix a), kappa) VH: QVQLQESGPGLVKPSQTLSLTCTVSGYSITSDYNAHWIRQPPGKGLEWIGYIHYSGQTMYNPSLKSRVTISRDTSKNQFSLKLSSVTAADTAVYYCARNFGSIYVNYFDYWGQGTLVTVSS VL: EIVLTQSPATLSLSPGERATLSCSASSSVSYMYWYQQKPGQAPRPLIYRTSNLASGIPARFSGSGSGTDFTLTISSLEPEDFAVYYCQQYHSYPTFGGGTKVEIK | 0.5 nM | 0.49 nM | 0.039 nM | 0.039 nM |  |  |
| SA316a (antibody, human IgG1, V domains shown, humanized; human IgG1 (suffix a), kappa) VH: QVQLQESGPGLVKPSQTLSLTCTVSGYSITSDYNAHWIRQPPGKGLEWIGYIHYSGSTYYNPSLKSRVTISRDTSKNQFSLKLSSVTAADTAVYYCARNYGSIYVNYFDYWGQGTLVTVSS VL: EIVLTQSPATLSLSPGERATLSCSASSSVSYMYWYQQKPGQAPRPLIYRTSNLASGIPARFSGSGSGTDFTLTISSLEPEDFAVYYCQQYHSYPTFGGGTKVEIK | 0.6 nM | 0.64 nM | 0.228 nM | 0.228 nM |  |  |
| SA317a (antibody, human IgG1, V domains shown, humanized; human IgG1 (suffix a), kappa) VH: QVQLQESGPGLVKPSQTLSLTCTVSGYSITSDYNAHWIRQPPGKGLEWIGYIHYSGSTLYNPSLKSRVTISRDTSKNQFSLKLSSVTAADTAVYYCARNYGSIYVNYFDYWGQGTLVTVSS VL: EIVLTQSPATLSLSPGERATLSCSASSSVSYMYWYQQKPGQAPRPLIYRTSNLASGIPARFSGSGSGTDFTLTISSLEPEDFAVYYCQQYHSYPTFGGGTKVEIK | 0.4 nM | 0.45 nM | 0.329 nM | 0.329 nM |  |  |
| SA318a (antibody, human IgG1, V domains shown, humanized; human IgG1 (suffix a), kappa) VH: QVQLQESGPGLVKPSQTLSLTCTVSGYSITQDYNAHWIRQPPGKGLEWIGYIHYSGQTMYNPSLKSRVTISRDTSKNQFSLKLSSVTAADTAVYYCARNFGSIYVNYFDYWGQGTLVTVSS VL: EIVLTQSPATLSLSPGERATLSCSASSSVSYMYWYQQKPGQAPRPLIYRTSNLASGIPARFSGSGSGTDFTLTISSLEPEDFAVYYCQQYHSYPTFGGGTKVEIK | 0.9 nM | 0.7 nM | 0.015 nM | 0.015 nM |  |  |
| SA319a (antibody, human IgG1, V domains shown, humanized; human IgG1 (suffix a), kappa) VH: QVQLQESGPGLVKPSQTLSLTCTVSGYSITQDYNAHWIRQPPGKGLEWIGYIHYSGQTNYNPSLKSRVTISRDTSKNQFSLKLSSVTAADTAVYYCARNFGSIYVNYFDYWGQGTLVTVSS VL: EIVLTQSPATLSLSPGERATLSCSASSSVSYMYWYQQKPGQAPRPLIYRTSNLASGIPARFSGSGSGTDFTLTISSLEPEDFAVYYCQQYHSYPTFGGGTKVEIK | 0.2 nM | 0.07 nM | 0.254 nM | 0.254 nM |  |  |
| SA321a (antibody, human IgG1, V domains shown, humanized; human IgG1 (suffix a), kappa) VH: QVQLQESGPGLVKPSQTLSLTCTVSGYSITQDYNAHWIRQPPGKGLEWIGYIHYSGQTLYNPSLKSRVTISRDTSKNQFSLKLSSVTAADTAVYYCARNFGSIYVNYFDYWGQGTLVTVSS VL: EIVLTQSPATLSLSPGERATLSCSASSSVSYMYWYQQKPGQAPRPLIYRTSNLASGIPARFSGSGSGTDFTLTISSLEPEDFAVYYCQQYHSYPTFGGGTKVEIK | 0.9 nM | 0.85 nM | 0.136 nM | 0.136 nM |  |  |
| SA325a (antibody, human IgG1, V domains shown, humanized; human IgG1 (suffix a), kappa) VH: QVQLQESGPGLVKPSQTLSLTCTVSGYSITSDYNAHWIRQPPGKGLEWIGYIHYSGSTNYNPSLKSRVTISRDTSKNQFSLKLSSVTAADTAVYYCARNYGSIYVNYFDYWGQGTLVTVSS VL: EIVLTQSPATLSLSPGERATLSCSASSSVSYMYWYQQKPGQAPRPLIYRTSNLASGIPARFSGSGSGTDFTLTISSLEPEDFAVYYCQEYHSYPTFGGGTKVEIK | 6.1 nM | 5 nM | 0.468 nM | 0.468 nM |  |  |
| SA326a (antibody, human IgG1, V domains shown, humanized; human IgG1 (suffix a), kappa) VH: QVQLQESGPGLVKPSQTLSLTCTVSGYSITSDYNAHWIRQPPGKGLEWIGYIHYSGSTNYNPSLKSRVTISRDTSKNQFSLKLSSVTAADTAVYYCARNYGSIYVNYFDYWGQGTLVTVSS VL: EIVLTQSPATLSLSPGERATLSCSASSSVSYMYWYQQKPGQAPRPLIYRTSNLASGIPARFSGSGSGTDFTLTISSLEPEDFAVYYCQLYHSYPTFGGGTKVEIK | 7.5 nM | 1.2 nM | 0.128 nM | 0.128 nM |  |  |
| SA327a (antibody, human IgG1, V domains shown, humanized; human IgG1 (suffix a), kappa) VH: QVQLQESGPGLVKPSQTLSLTCTVSGYSITSDYNAHWIRQPPGKGLEWIGYIHYSGSTNYNPSLKSRVTISRDTSKNQFSLKLSSVTAADTAVYYCARNYGSIYVNYFDYWGQGTLVTVSS VL: EIVLTQSPATLSLSPGERATLSCSASSSVSYMYWYQQKPGQAPRPLIYRTSNLASGIPARFSGSGSGTDFTLTISSLEPEDFAVYYCQQYHGYPTFGGGTKVEIK | 7.1 nM | 4 nM | 0.249 nM | 0.249 nM |  |  |
| SA328a (antibody, human IgG1, V domains shown, humanized; human IgG1 (suffix a), kappa) VH: QVQLQESGPGLVKPSQTLSLTCTVSGYSITSDYNAHWIRQPPGKGLEWIGYIHYSGSTNYNPSLKSRVTISRDTSKNQFSLKLSSVTAADTAVYYCARNYGSIYVNYFDYWGQGTLVTVSS VL: EIVLTQSPATLSLSPGERATLSCSASSSVSYMYWYQQKPGQAPRPLIYRTSNLASGIPARFSGSGSGTDFTLTISSLEPEDFAVYYCQQYHSYVTFGGGTKVEIK | 2 nM | 5.8 nM | 0.133 nM | 0.133 nM |  |  |
| heavy chain library variant C34D (antibody, V domains shown) VH: QVQLQESGPGLVKPSQTLSLTCTVSGYSITSDYNDHWIRQPPGKGLEWIGYIHYSGSTNYNPSLKSRVTISRDTSKNQFSLKLSSVTAADTAVYYCARNYGSIYVNYFDYWGQGTLVTVSS VL: EIVLTQSPATLSLSPGERATLSCSASSSVSYMYWYQQKPGQAPRPLIYRTSNLASGIPARFSGSGSGTDFTLTISSLEPEDFAVYYCQQYHSYPTFGGGTKVEIK |  |  |  |  | 0.5 nM | 0.4 nM |
| heavy chain library variant C34I (antibody, V domains shown) VH: QVQLQESGPGLVKPSQTLSLTCTVSGYSITSDYNIHWIRQPPGKGLEWIGYIHYSGSTNYNPSLKSRVTISRDTSKNQFSLKLSSVTAADTAVYYCARNYGSIYVNYFDYWGQGTLVTVSS VL: EIVLTQSPATLSLSPGERATLSCSASSSVSYMYWYQQKPGQAPRPLIYRTSNLASGIPARFSGSGSGTDFTLTISSLEPEDFAVYYCQQYHSYPTFGGGTKVEIK |  |  |  |  | 1 nM | 0.6 nM |
| heavy chain library variant C34H (antibody, V domains shown) VH: QVQLQESGPGLVKPSQTLSLTCTVSGYSITSDYNHHWIRQPPGKGLEWIGYIHYSGSTNYNPSLKSRVTISRDTSKNQFSLKLSSVTAADTAVYYCARNYGSIYVNYFDYWGQGTLVTVSS VL: EIVLTQSPATLSLSPGERATLSCSASSSVSYMYWYQQKPGQAPRPLIYRTSNLASGIPARFSGSGSGTDFTLTISSLEPEDFAVYYCQQYHSYPTFGGGTKVEIK |  |  |  |  | 0.4 nM | 0.2 nM |
